The results in this text go back to PMC10996581 (The Journal of Cell Biology, 2024).

Experiment [1] concerns the target T1, IRE1αLDΔ308–357 mutant (human, UniProt O75460 24-443, Δ308–357).
T1 sequence: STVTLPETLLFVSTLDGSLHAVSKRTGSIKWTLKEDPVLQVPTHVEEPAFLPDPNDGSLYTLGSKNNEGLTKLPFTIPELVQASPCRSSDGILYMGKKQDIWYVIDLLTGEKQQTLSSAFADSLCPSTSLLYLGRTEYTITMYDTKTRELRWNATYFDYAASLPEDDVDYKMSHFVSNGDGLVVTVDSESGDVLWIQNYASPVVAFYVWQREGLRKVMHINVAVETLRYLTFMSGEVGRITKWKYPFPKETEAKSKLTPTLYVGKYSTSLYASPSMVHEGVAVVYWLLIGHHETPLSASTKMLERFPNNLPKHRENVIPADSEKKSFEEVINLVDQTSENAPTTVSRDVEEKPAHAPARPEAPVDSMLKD
The experiment can be described thus: […].

For experiment [2], the target named is T1, IRE1αLDΔ308–357 mutant. The experiment can be described thus: MST.

Where no end group is shown, it is not given here.

As for IYGWYRVHFGVLDEQLHR (also: 5-FAM labelled, position not given here) [CTxA_(I124-R141) peptide, 5-FAM labelled], in the experiment with IRE1αLDΔ308–357 mutant [1], the binding result is reported as “binds”.

B1: His6-CTxA1 (enzymatic A1 chain of the cholera toxin A subunit) (domain or fragment)
chain: NDDKLYRADSRPPDEIKQSGGLMPRGQSEYFDRGTQMNINLYDHARGTQTGFVRHDDGYVSTSISLRSAHLVGQTILSGHSTYYIYVIATAPNMFNVNDVLGAYSPHPDEQEVSALGGIPYSQIYGWYRVHFGVLDEQLHRNRGYRDRYYSNLDIAPAADGYGLAGFPPEHRAWREEPWIHHAPPGCGNAPRSS
For B1, the binding result with IRE1αLDΔ308–357 mutant [2] was “binds”.
